This series in a line: soluble on expression in E. coli; label from the status in PepcDB or PDB records.
In the case of “MSLAATIREVAALAGVAPGTVSNVLTGKKLVAEPLRKAVLDAIAQLDYRPNHLASSLRFGRTKSIGIVVPDMTNPFFSGLVRELELKAAKSGFQILLMSSYEEAAEERERIRALVSRQVDGLIISPSRDSIETSPHSAISGIPTVLVDRAFAVEGFDTVSADNEQATLMGARHLIELGHKRITFLATAPGLANMEERVSGYRKAMQDAGVSDANVVYGGLSIESCRSAIEQELRRAGRPTAVFASAYVATLGAAKAIRALDLAFPQDVSLLGFDDSDWMTVLRPYVSTIEQPLDELGHACWELLQRRMKKMDVPPVHRRIACTLRARESTREGHHHHHH”, the “soluble on expression in E. coli” value is reported as “soluble”.

As for “MSLADKATIYIIDDDEIFQFITRKSFERLERNDNLFFFLNGEDALSSIKEAISGNKPSPDLIFLDINMPIMDGWDFLAELIKLEGEMKKTPQIYMVSSSIDDKDLIKSKTYNMIKDYIVKPIKDTHIKELLNNLNEGHHHHHH”, the “soluble on expression in E. coli” value is “soluble”. For the sequence “MSLADYLTVTHLTKYLKLKFDRDPYLERVYLTGQVSNFRKRPTHQYFSLKDESAVIQATMWAGVYKKLGFDLEEGMKINVIGRVQLYEPSGSYSIVIEKAEPDGIGALALQFEQLKKKLTAEGYFEQKHKQPLPQFVSKIGVITSPSGAVIRDIITTVSRRFPGVEILLFPTKVQGDGAAQEVVANIRRANQREDLDLLIVGRGGGSIEDLWAFNEEIVVQAIFESQLPVISSVGHETDTTLADFVADRRAATPTAAAELATPITKTDLMSWIVERQNRSYQACLRRIKQRQEWVDKLSQSVIFRQPERLYDAYLQKIDRLSMTLMNTMKDRLSSAKENKVQLDHALANSQLQTKIERYQDRVATAKRLLMANMASQYDSQLARFEKAQDALLSLDASRIIARGYAMIEKNQALVASVSQITKGDQLTIKMRDGQLDVEVKDVKNENIEGHHHHHH”, the “soluble on expression in E. coli” value is “not soluble”. For “MSLAEITDRDTALFESGIKLGALYHQFVGSPVNLSTAGSLEAAIRDSISLQPCVQSITVAIDREMVRGRINDFGYCELEGRMLGVEAVIRYGTAVVHVGMRYDAEMDYPMMSVQQIEQIGQIRQIEQDKQTEQIRQIRQTEVGEGHHHHHH” the value was “soluble”; for “MSLAEKICITEIDKLSQKLLRIETELNANIPTTLWISDLHGEGDRFKSILRGRFGMLYQTCKEGLPATFTPEKIQYLAKIVRKKNYFADSQQQMDRQDVILCFVQILKYKLTNSTNRNREIFLPEFRETIGRLLAGLPVPDPIFEESIISDRLIFHLSYAIRQVLLDRIQVLGDVFDRGSQPDKIIRILSSPAYKEMVDYVFGNHDILWMGAAAGTPSLVAETLRITCRYDHFRLLNRLRFDTSRLAEFAERTYEIKKATGKFKAKTDRGRAMEKALTVIQFKLEEKLINDFPHYGMEKRLWLERLAEMLKTGATEELNDSDFPTIDLENPSKLSKEESEIINDLIEQFRSNKYLKRLLKFFFEEGSTYHISNNFLNIHALVPSTKEGEFEEFMGHKGKDLLDYIQKVIRRTGQNYLYNREQSADDLALFFYLWCGPKSPFFGKHAMKTFERYFLLDKERHAEHSLYWQKNMQSDAFKEKMQEEFGIQRVIFGHTPVNYMQGNKMASEDGVAINVDGGFAAAYYNRGHALVHTPHQLYGIILPTPDELIKAAVRLEPAPLDIEFIDEFPQPLKIKNTIAGKLLQQERDLIMGKIQSYNSEGHHHHHH”, “soluble”. For “MSLAGAVALSLFDELDVVFGPAALADALFYRHSPALRFELEGGKTYIAQFLQAVDRARTVLNVAFAGMEAVTAVLGVWGDDPPAQLWATAEAALHELGIKLPAPELSASELPTPETRVLHGEEDTQVLFAFTLSTARLPELLWGSLAADLGIFPQLRGRLWLAAPELGLLACPYDSRGMDMIGPNTARLAQLYHQFGDWLLDHDRARMAEMLSPGSKEGHHHHHH” the value was “soluble”. Take “MSLAHVCSVILVRRSFDIHHEQQKISLHNESILLLDKNLADDFAFCSLDTRRLDIEELTVCHYLQNIRQLPRNLGLHSKDRLLINQSPPIQLVTAIFDSFNDPRVNSPILSKMLYLSCLSMFSHKKELIPLLFNSISTVSGKVERLISFDIAKRWYLRDIAERMYTSESLIKKKLQDENTCFSKILLASRMSMARRLLELRQIPLHTIAEKCGYSSTSYFINTFRQYYGVTPHQFSQHSPGTEGHHHHHH”: the “soluble on expression in E. coli” value is given as “soluble”. For “MSLAKEPLIRVLLIEDDPMVQEVNRMFVEKLSGFTIVGTTATGEEGMVKTRELQPDLILLDIFMPKQDGLSFIKQIREQYIDVDIIAVTAANDTKTIKTLLRYGVMDYLVKPFTFERLKAALTQYEEMFRKMQKEAELSQDSLDEMIKQKQAQANMDDLPKGLHAHTLQQVIERLEELDEPKSAEEIGRDVGLARVTVRRYLNYLESVGQVEMDLTYGSIGRPIQTYKLKEGHHHHHH” the value was “soluble”; for “MSLAKGGKRMRRTLAGIAAVLGLALGQQQVTLFWSGAITGPTSDAGAPYGAAVEDYCKWANERKLVPGVVFNCVVRDDQYNNANTQRFFEEAVDRFKIPVFLSYATGANLQLKPLIQELRIPTIPASMHIELIDPPNNDYIFLPTTSYSEQVVALLEYIAREKKGAKVALVVHPSPFGRAPVEDARKAARELGLQIVDVQEVGSGNLDNTALLKRFEQAGVEYVVHQNVAGPVANILKDAKRLGLKMRHLGAHYTGGPDLIALAGDAAEGFLWATSFYMAHEDTPGIRLQKEIGRKYGRPENFIESVNYTNGMLVASIAVEAIRRAQERFKRITNETVYQAIVGMNGPNAFKPGFAVSTKQGVEIDFTKSEHTGAEGLRILEAKGGRFVPVTEPFTSALFRKVHYGEGHHHHHH”, “soluble”.

For “MSLAKYKRVVLKLSGEALAGEQGYGIDPEVIQSIASQIKEIVELDVEVAVVVGGGNIWRGMAGSAKGMDRATADYMGMLATVMNSLALQDSLENLDVQSRVQTSIEMRQVAEPYIRRRAIRHLEKKRVVIFAAGTGNPYFSTDTTAALRAAEIEAEVILMAKNKVDGVYNAEPSVDVNAKKYTSISYLDVLKEGLAVMDSTASSLCMDNNIPLIVFSIMEEGNIKKAVLGEEIGTVVRGSNEGHHHHHH”, the “soluble on expression in E. coli” value is reported as “soluble”. For “MSLALDHVGIATEDAAGLAERFGAVFETQIAHSETFDGMYIIFLDMNGTYLELLEPVDDSDGPIATFLAQRDAGIHHIAIMTEDIATALENARAVGIECIDETPRQGAWGHQVAFLHPRSTGGVLCEFVQQEGHHHHHH” the value was “soluble”.

With “MSLANDDLQQRLDKGMYGTPLVNPEEQHKYMGTFRERCRLSMTVAEMKDAQNQKHLLEELAKHPEVTVLLNGEISSDLQSTYIKLLNQHGANFKIVNNFVENNPDSLGLLLAEKHAVDEPVIDVTEKYPQATETPKEEPTAKKSFWQKLFHSEGHHHHHH”, the “soluble on expression in E. coli” value was “soluble”.

Take “MSLAPAAVLELPSPTGLHPVGRRTLHLVDRHRPDPWVPAARGRELMVSVSYPARSSGARPAAYMTRSEAQRLLELKGLAGVVPAATVAGTRTHAQADAPPAPGRFPLVLLSPGFSVPRTTLTALAVDVAARGYVVAAVDHAYESVGTEFPGGRVPPCVACDRVGVDVDEATVVRGRAADLSFVIDELTGRRSTGALARLIDPGRIGVAGHSIGGAAALATMAADRRVRAGVNLDGGFFVPDAGHRIGGRPFMMVGAEAVHGPGNTAGDWAATYDRLHGWKRWLTVSGAGHFSFTDIPWLAEQLGLPDPQVPLPGERGWYITRDYVGAFFDLHLRGLPQPLLHGPTSSHPEVGFHRPEGHHHHHH”: the “soluble on expression in E. coli” value was “soluble”. As for “MSLAPAEWVALNYVPFAERSLEVVVDLYQKTACHKAVVNEKVLQNIIKTLRVPLSLKYSCPSESTWKLAVSSLLRVLSIGLPVARQHASSGKFDSMWPELANTFEDFLFTKSIPPDNLSIQEFQRNENIDVEVVQLISNEILPYANFIPKEFVGQIMTMLNKGSIHSQSSSFTEAEIDIRLREEFSKMCFETLLQFSFSNKVTTPQEGYISRMALSVLLKRSQDVLHRYIEDERLSGKCPLPRQQVTEIIFVLKAVSTLIDSLKKTQPENVDGNTWAQVIALYPTLVECITCSSSEVCSALKEALVPFKDFMQPPASRVQNGEEGHHHHHH”, the “soluble on expression in E. coli” value is “not soluble”.

Take “MSLAPLVAMVGGGQLARMTHQAAIALGQNLRVLVTSADDPAAQVTPNVVIGSHTDLAALRRVAAGADVLTFDHEHVPNELLEKLVADGVNVAPSPQALVHAQDKLVMRQRLAAAGVAVPRYAGIKDPDEIDVFAARVDAPIVVKAVRGGYDGRGVRMARDVADARDFARECLADGVAVLVEERVDLRRELSALVARSPFGQGAAWPVVQTVQRDGTCVLVIAPAPALPDDLATAAQRLALQLADELGVVGVLAVELFETTDGALLVNELAMRPHNSGHWTIDGARTSQFEQHLRAVLDYPLGDSDAVVPVTVMANVLGAAQPPAMSVDERLHHLFARMPDARVHLYGKAERPGRKVGHINFLGSDVAQLCERAELAAHWLSHGRWTDGWDPHRASDDAVGVPPACGGRSDEEERREGHHHHHH”: the “soluble on expression in E. coli” value was “soluble”. As to “MSLAPSTYYDAKTRPPSARAQRDAVLGPALRQLWKDNYCVYGAHKLWKTARRAGYDVGRDQVARLMRAAGIQGVRRGKRVRTTKPDPVAARHPDLVKRKFTATAPNQLWVTDLTFVPTWAGVAYVCFIVDAHSRMIVGWRVASHMRTSMVLDALEMARWSRGTTLQNLICHSDAGSQFTSIRYGERLAEIGGVPSIGTVGDSFDNALAETVNGYYKAELIYGPARSGPWKTVEDVELATLSWVYWHNTSRLHSYLGDLPPAEFEAAFYDASRSGQPLVEIQEGHHHHHH”, the “soluble on expression in E. coli” value is “soluble”.

Regarding “MSLAQKISATPAAGAQMTLAQADGIAFRELSFPEALKRAEVEDKLLFVDCFTTWCGPCKRLSKVVFKDSLVADYFNRHFVNLKMDMEKGEGVELRKKYGVHAYPTLLFINSSGEVVYRLVGAEDAPELLKKVKLGVESGGLSGLKKRYEAGDRDLAFICGYINALSAANREQEAGKVAADFLQGSEQKMLEDEDYFLVFYYYVHDVNSSAFQYAVNHKKEITDKFPRQAASLDRRLLEDWIAGSYAYLKVDESNHCTFDEQGLDAYVAKMKQMNVAEADMIGESLRLSRDGIMKQWDSFVKRGDKILASHTILGDEGHLLQWVNWLNKECADMSLREKAAQWCDKACEELIKKNEEIKKNLPPGAIPAISMVDHKGQLLQVAEKLRKLMQQSEGHHHHHH”, the “soluble on expression in E. coli” value was “soluble”. For “MSLASSLHVLLEKIIKIGDLTVNSPGGSRTFGDGTGKKVVLNFTDEAAMQEIAADPALKLAEMYMEGRAKVAKGDIYDFLALVKGNTLSEALSFGMIWRGMARIIAARIKMRLPVNHNKSNVAHHYDLSAKLFDLFLDEDWQYSCAYFNPPDIGLYEAQVAKKRHIAAKLMTEPGQSVLEIGSGWGGMAMYIAESAGADVTGITLSEEQLRVSRDRAAKRGLAGNVRFELQDYRYLPASKKYDRIVSVGMFEHVGPTHYRDYFDKVAEVLDDKGVMVLHSIGQPYPALATNPFIEKYIFPGGYIPSLAEVLPAIQKSGLLVKDIEILPMHYAHTLRHWRERFVARKAEAVALYDERFFRMWEFYLAGSEMAFTHENFHIFQIQLAKDRDAVPHNRDYIAQNEAKLLEFEKTRPPLEKVSEGHHHHHH” the value was “soluble”.

On to “MSLASVKEAAAVRPPLNQILFGPPGTGKTYEAIEKALEILDPSFLLQLGDDESNERRRALKRRYDELAKEGLVQFVTFHQSFSYENFVEGLSASSDPDTKQVRYEVEDGVFKELCESARTRLVRRSDDAPLELSGRRIWKLSLGDSITEGHIFEECMEKGLALMGFGNNADFSQCQSREDIQKMFAASGEPLSLGAYPITAIKTFVCQMKLGDLIVVSEGNLKFRAIGEITGDYQLLPRDSDTYSQARPVRWLRGYKPALPYGALMENRFSQMTVYELRAGSIDHDKFRELLKSECIATGADRPHVLIIDEINRGNVSRIFGELITLIEPSKRSGAAEALEVLLPYSKDPFSVPDNVYLIGTMNTADRSLAGLDIALRRRFDFVEMAPRPDKLTGVKVAEIDISAVLETMNRRIEVLLDREHRLGHAYFMSLENSNDLSRLSNIFRQQIIPLLQEYFFEDWQRIAWILNDHRKDERFRFIVPAPYSVDSLFGDTGQVAQDSKAWRMNEEAFHKPQSYLGIVGDGKEGHHHHHH”, for which the “soluble on expression in E. coli” value is recorded as “soluble”.
